Test results: patent US20130171178A1 (US Dept. of Health and Human Services, published 2013)

The binders below were run against HLA-A2 MHC class I molecule (human) (assay: T2 binding assay, surface HLA-A2 by flow cytometry).
Method: Binding affinity to HLA-A2 of synthetic peptides derived from the XAGE-1 amino acid sequence was measured by using T2 cells. The T2 cell line is a T-B fusion hybridoma cell line deficient in TAP1 and TAP2 gene expression available from the ATCC under accession number CRL-1992. T2 cells suspended in Dulbecco's modified Eagles' medium (DMEM) containing 2.5% fetal calf serum (FCS) were incubated overnight with different concentrations of the peptides and 10 μg/ml of β2-microglobulin. The cells were washed twice with phosphate buffered saline (PBS) containing 2% FCS and incubated on ice with anti-HLA-A2 monoclonal antibody (BB7.2, produced by ATCC cell line HB-82) for 30 min. After a single wash, the cells were stained with FITC-labeled goat anti-mouse Ig antibody for 30 min on ice. The cells were washed twice, and expression of HLA-A2 was measured by flow cytometry. The expression level of HLA-A2 was determined as follows: mean fluorescent index (F.I.)=(mean fluorescent intensity of the sample with peptide−mean fluorescent intensity of the sample without peptide)/mean fluorescent intensity of the sample without peptide; mean fluorescent intensity=geometric mean fluorescent intensity of the sample stained with both 1st and 2nd antibody−geometric mean fluorescent intensity of the sample stained with 2nd antibody alone.
A series of peptides derived from xage-1 14 were discovered with enhanced binding to HLA-A2.

Row | FI50 | Binder
1 | 0.28 µM | GVMPSAPSPV [3M xage-1 14]
2 | 2.36 µM | YVFPSAPSPV [1Y xage-1 14]
3 | 0.62 µM | GLMPSAPSPV [2L3M xage-1 14]
4 | 3.04 µM | YLFPSAPSPV [1Y2L xage-1 14]
5 | 1.86 µM | GLFPSAPSPV [2L xage-1 14]

The binders below were run against HLA-A2 MHC class I molecule (human) (assay: T2 binding assay, surface HLA-A2 by flow cytometry (BB7.2)).

Row | F.I.50 | Binder
6 | > 50 µM | ATRVPEVWIL (Synthetic 10-mer) [xage-1 33 peptide]
7 | > 50 µM | HTASPRSPVM (Synthetic 10-mer) [xage-1 57 peptide]
